Source: article PMC13169712
Residue numbers refer to the chain shown, from its start. Names may count otherwise. Square brackets hold non-standard residues; d marks the D form. Ends that are not written are not given here. Hyp = O=C(O)[C@@H]1C[C@@H](O)CN1

B1: Ara h 6c R90Q; Q91A (protein)
chain: SCERQVDRVNLKPCEQHIMQRIMGEQEQYDSYDIRSTRSSDQQQRCCDELNEMENTQGCMCEALQQIMENQCDRLQDQAMVQQFKRELMSLPQQCNFRAPQRCDLDVSGGRC
B2: Ara h 6c D19R; E27A; N82A (protein)
chain: B1 chain with D7R, E15A, N70A, Q78R, A79Q
B3: Ara h 6c Q113R; R114E (protein)
chain: B1 chain with Q78R, A79Q, Q101R, R102E

Experiments:
[1] = molecular target: 38B7 human IgE mAb (human); assay: SPR; Carterra LSA; antibody as ligand, allergen or peptide as analyte; how the antibody was held for these pairs is not told
38B7 human IgE mAb (human), sequence (heavy, as listed by the source, chain 1 of 2): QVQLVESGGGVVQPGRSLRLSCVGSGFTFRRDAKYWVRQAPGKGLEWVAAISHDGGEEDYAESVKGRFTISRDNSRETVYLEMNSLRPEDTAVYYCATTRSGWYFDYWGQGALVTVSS
38B7 human IgE mAb (human), sequence (light, as listed by the source, chain 2 of 2): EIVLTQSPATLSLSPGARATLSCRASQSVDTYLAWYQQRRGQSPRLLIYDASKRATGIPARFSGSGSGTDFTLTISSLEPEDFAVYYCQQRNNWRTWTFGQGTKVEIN

[2] = molecular target: 16A8 human IgE mAb; assay: ELISA; conditions: chain shown with the change; mAb 10 µg/mL (highest point of the titration); parent: est. 3.4; read off a plot
16A8 human IgE mAb, sequence (chain, as listed by the source, chain 1 of 2): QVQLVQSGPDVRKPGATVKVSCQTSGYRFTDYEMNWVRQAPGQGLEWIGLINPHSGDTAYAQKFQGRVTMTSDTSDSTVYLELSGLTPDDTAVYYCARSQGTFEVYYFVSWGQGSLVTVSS
16A8 human IgE mAb, sequence (chain, as listed by the source, chain 2 of 2): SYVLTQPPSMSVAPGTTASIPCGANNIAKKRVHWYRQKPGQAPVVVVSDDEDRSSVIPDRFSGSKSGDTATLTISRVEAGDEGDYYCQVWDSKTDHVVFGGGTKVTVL

[3] = molecular target: 13D9 human IgE mAb; assay: ELISA; conditions: chain shown with the change; mAb 10 µg/mL (highest point of the titration); parent: est. 3.5; read off a plot
13D9 human IgE mAb, sequence (chain, as listed by the source, chain 1 of 2): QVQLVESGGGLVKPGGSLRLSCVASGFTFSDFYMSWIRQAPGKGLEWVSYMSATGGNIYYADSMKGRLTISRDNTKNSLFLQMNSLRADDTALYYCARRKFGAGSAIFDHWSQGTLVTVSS
13D9 human IgE mAb, sequence (chain, as listed by the source, chain 2 of 2): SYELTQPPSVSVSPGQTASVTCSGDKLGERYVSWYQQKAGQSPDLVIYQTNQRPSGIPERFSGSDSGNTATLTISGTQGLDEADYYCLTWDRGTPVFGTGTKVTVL

[4] = molecular target: 8F3 human IgE mAb; assay: ELISA; conditions: chain shown with the change; mAb 10 µg/mL (highest point of the titration); parent: est. 3.6; read off a plot
8F3 human IgE mAb, sequence (chain, as listed by the source, chain 1 of 2): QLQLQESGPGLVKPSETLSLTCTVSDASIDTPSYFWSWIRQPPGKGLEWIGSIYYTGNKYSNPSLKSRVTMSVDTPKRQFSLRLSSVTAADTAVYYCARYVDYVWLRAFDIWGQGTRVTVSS
8F3 human IgE mAb, sequence (chain, as listed by the source, chain 2 of 2): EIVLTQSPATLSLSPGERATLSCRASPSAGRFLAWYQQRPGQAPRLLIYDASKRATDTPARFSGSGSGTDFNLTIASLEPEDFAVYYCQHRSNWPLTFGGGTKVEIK

[5] = molecular target: 1H9 human IgE mAb; assay: ELISA; conditions: chain shown with the change; mAb 10 µg/mL (highest point of the titration); parent: est. 3.3; read off a plot
1H9 human IgE mAb, sequence (chain, as listed by the source, chain 1 of 2): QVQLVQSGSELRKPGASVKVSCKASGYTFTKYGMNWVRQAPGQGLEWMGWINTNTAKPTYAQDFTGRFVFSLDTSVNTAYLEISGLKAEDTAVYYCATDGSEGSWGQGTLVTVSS
1H9 human IgE mAb, sequence (chain, as listed by the source, chain 2 of 2): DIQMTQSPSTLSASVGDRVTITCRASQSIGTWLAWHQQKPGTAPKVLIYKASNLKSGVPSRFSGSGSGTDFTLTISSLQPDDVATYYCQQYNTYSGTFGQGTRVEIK

Row | Binder | Kd [1] [µM] | koff [1] [s⁻¹] | kon [1] [M⁻¹ s⁻¹] | response [2] [OD 450nm] | response [3] [OD 450nm] | response [4] [OD 450nm] | response [5] [OD 450nm]
1 | EDSYERDPYSPSQD [nonhydroxylated DPYSPS containing peptide (…)] | 7.1 | 0.0887 | 16900 | – | – | – | –
2 | B1 | – | – | – | 3.4 | 3.5 | 3.6 | 1.6
3 | B2 | – | – | – | – | 1.6 | – | –
4 | B3 | – | – | – | 2.6 | 3.5 | – | 3.4
5 | EDSYERDPYS[Hyp]SQD [hydroxylated DPYSPS containing peptide (…^OHSQD)] | 0.02 | 0.00198 | 101000 | – | – | – | –
